Source: patent US20230272055A1, “ANTI-MUTANT CALRETICULIN (CALR) ANTIBODIES AND USES THEREOF” (Incyte Corporation, priority 2021, published 2023)

Assays:
[1] = target: Human Type 1 mutCALR (human); experiment: cell-based or functional assay
[2] = target: recombinant Flag tag_GFP_tev_hmutCALR Type 1 (human); experiment: HTRF competition against the mutCALR/MPL complex

Substance	IC50 of inhibition of cell proliferation (BaF3 cells expressing MPL/mutCALR Type 1) [1] [µg/mL]	concentration at which some signal inhibition was seen [2] [nM]
AB1: CAL2 antibody, Dianova	> 60	–
CAL2 antibody (Dianova)	–	> 100
